This is an account of results in paper PMC5959753.

Substrate in this series: C[N+](C)(C)[C@@H](Cc1cnc([S+]([O-])C[C@H](N)C(=O)O)[nH]1)C(=O)[O-]
Briefly: purified protein. To be noted: pH 8.0, 25 °C, 1 mM DTT.

B1: Egt2 (Neurospora crassa OR74A) (protein)
chain: MVATTVELPLQQKADAAQTVTGPLPFGNSLLKEFVLDPAYRNLNHGSFGTIPSAIQQKLRSYQTAAEARPCPFLRYQTPVLLDESRAAVANLLKVPVETVVFVANATMGVNTVLRNIVWSADGKDEILYFDTIYGACGKTIDYVIEDKRGIVSSRCIPLIYPAEDDDVVAAFRDAIKKSREEGKRPRLAVIDVVSSMPGVRFPFEDIVKICKEEEIISCVDGAQGIGMVDLKITETDPDFLISNCHKWLFTPRGCAVFYVPVRNQHLIRSTLPTSHGFVPQVGNRFNPLVPAGNKSAFVSNFEFVGTVDNSPFFCVKDAIKWREEVLGGEERIMEYMTKLAREGGQKVAEILGTRVLENSTGTLIRCAMVNIALPFVVGEDPKAPVKLTEKEEKDVEGLYEIPHEEANMAFKWMYNVLQDEFNTFVPMTFHRRRFWARLSAQVYLEMSDFEWAGKTLKELCERVAKGEYKESA
By Km is commonly meant the concentration of substrate that gives half-maximal velocity. Usually kcat stands for the maximal rate divided by the concentration of active sites. On to B1, for which the Km came out at 155 ± 10 µM and the kcat turned out to be 8.7 ± 0.1 s⁻¹.
